Data: the RNAGym collection of RNA variant scans (doi:10.1101/gr.219683.116)

B1: mRNA-splicing (parent)
chain: AGUUGCUGCUGGGAGCUCCAGCACAGUGAAAUGGACAGAAGGGCAGAGCAA

Variants of: B1
Assay: exon inclusion enrichment index; higher = more inclusion; WT1 exon 5 minigene, HEK293

Variant | exon inclusion enrichment index
G48C | 0.292
G48U | 0.288
G48A | 0.46
A47U G48U | 0.125
